{"source": "paper PMC9241813", "about": "“SGK1, a Serine/Threonine Kinase, Inhibits Prototype Foamy Virus Replication” (Microbiology Spectrum, 2022)", "proteins": {"B1": {"name": "prototype foamy virus Tas protein (Flag-Tas) (natural protein)", "chain": "MDSYEKEESVASTSGIQDLQTLSELVGPENAGEGELTIAEEPEENPRRPRRYTKREVKCVSYHAYKEIEDKHPQHIKLQDWIPTPEEMSKSLCKRLILCGLYSAEKASEILRMPFTVSWEQSDTDPDCFIVSYTCIFCDAVIHDPMPIRWDPEVGIWVKYKPLRGIVGSAVFIMHKHQRNCSLVKPSTSCSEGPKPRPRHDPVLRCDMFEKHHKPRQKRPRRRSIDNESCASSSDTMANEPGSLCTNPLWNPGPLLSGLLEESSNLPNLEVHMSGGPFWEEVYGDSILGPPSGSGEHSVL", "notes": "also called PFV Tas; Myc-Tas; source: HEK293T, transfected, in lysate"}}, "biological_target": "the molecule itself", "test": "cross-linking; HEK293T cells transfected with Flag-Tas and empty vector or HA-SGK1; lysate supernatant incubated with cross-linking buffer at room temperature for 30 min; Western blot"}
{"protein": "B1", "values": [{"measurement": "stoichiometry N", "value": 2}]}
